This is an account of results in publication PMC6168074 (Cell reports, 2017).

In test [1] the target is T1, Damb (DAMB) (Drosophila melanogaster, UniProt Q24563).
T1 sequence (Q24563 1-539): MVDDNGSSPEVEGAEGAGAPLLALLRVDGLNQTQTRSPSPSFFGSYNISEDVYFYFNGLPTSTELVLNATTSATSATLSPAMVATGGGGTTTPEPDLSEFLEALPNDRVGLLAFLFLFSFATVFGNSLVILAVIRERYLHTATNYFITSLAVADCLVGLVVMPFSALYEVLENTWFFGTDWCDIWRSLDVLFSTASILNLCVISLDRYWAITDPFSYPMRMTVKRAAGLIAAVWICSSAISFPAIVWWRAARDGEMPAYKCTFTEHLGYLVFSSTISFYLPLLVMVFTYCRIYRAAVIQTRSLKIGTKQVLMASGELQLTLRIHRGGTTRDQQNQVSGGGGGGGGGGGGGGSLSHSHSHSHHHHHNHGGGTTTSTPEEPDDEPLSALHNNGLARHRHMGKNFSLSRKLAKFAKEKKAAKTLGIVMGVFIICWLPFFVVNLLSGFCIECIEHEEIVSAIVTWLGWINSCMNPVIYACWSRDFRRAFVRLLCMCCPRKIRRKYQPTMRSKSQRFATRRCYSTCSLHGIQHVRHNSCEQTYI
Kind of test: real-time BRET G protein activation assay, HEK293T/[…] cells. The format is cell-based. (In BRET a luciferase serves as donor, and the signal depends on an acceptor being close.)

Test [2] concerns the target Drosophila Gαs isoform A (Drosophila).
The target of test [3] is Drosophila Gαq isoform G (Drosophila).

In the case of `NCCc1ccc(O)c(O)c1` [dopamine], the EC50 (commonly the concentration needed to bring the measured effect to its halfway point) in test [1] is 56.7 ± 7.7 nM.

B1: Damb (DopAmine receptor expressed in Mushroom Bodies) (receptor)
chain: MVDDNGSSPEVEGAEGAGAPLLALLRVDGLNQTQTRSPSPSFFGSYNISEDVYFYFNGLPTSTELVLNATTSATSATLSPAMVATGGGGTTTPEPDLSEFLEALPNDRVGLLAFLFLFSFATVFGNSLVILAVIRERYLHTATNYFITSLAVADCLVGLVVMPFSALYEVLENTWFFGTDWCDIWRSLDVLFSTASILNLCVISLDRYWAITDPFSYPMRMTVKRAAGLIAAVWICSSAISFPAIVWWRAARDGEMPAYKCTFTEHLGYLVFSSTISFYLPLLVMVFTYCRIYRAAVIQTRSLKIGTKQVLMASGELQLTLRIHRGGTTRDQQNQVSGGGGGGGGGGGGGGSLSHSHSHSHHHHHNHGGGTTTSTPEEPDDEPLSALHNNGLARHRHMGKNFSLSRKLAKFAKEKKAAKTLGIVMGVFIICWLPFFVVNLLSGFCIECIEHEEIVSAIVTWLGWINSCMNPVIYACWSRDFRRAFVRLLCMCCPRKIRRKYQPTMRSKSQRFATRRCYSTCSLHGIQHVRHNSCEQTYI
On to B1, for which the rate of G protein activation (BRET, 100 μM DA, HEK293T/17 cells) in test [2] was 0.46 s⁻¹; in test [3], 2.71 s⁻¹.
